Measurements published in the supplement of paper PMC7877785.
± gives the uncertainty stated by the source.

Experiment: self-splicing fitness, log relative to wild type (ln ratio); higher = more splicing; Tetrahymena group I intron in knt gene, E. coli kanamycin selection, DiMSum; sequences stand for … in CUCUCU…GGAGGGAAAAGUUAUCAGGCAUGCACCUGGUAGCUAGUCUUUAAACCAAUAGAUUGCAUCGGUUUAAAAGGCAAGACCGUCAAAUUGCGGGAAAGGGGUCAACAGCCGUUCAGUACCAAGUCUCAGGGGAAACUUUGAGAUGGCCUUGCAAAGGGUAUGGUAAUAAGCUGACGGACAUGGUCCUAACCACGCAGCCAAGUCCUAAGUCAACAGAUCUUCUGUUGAUAUGGAUGCAGUUCACAGACUAAAUGUCGGUCGGGGAAGAUGUAUUCUUCUCAUAAGAUAUAGUCGGACCUCUCCUUAAUGGGAGCUAGCGGAUGAAGUGAUGCAACACUGGAGCCGCUGGGAACUAAUUUGUAUGCGAAAGUAUAUUGAUUAGUUUUGGAGUACUCGUGGUCG
In short: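 Six replicate transformations of E. coli BL21(DE3) with a pET-22b(+) library were grown overnight at 37°C or 30°C. The library randomised all eight P1ex-region intron nucleotides, the intron lying in the knt kanamycin-resistance gene, and plates were LB agar with or without 25 μg/mL kanamycin plus 100 μg/mL carbenicillin, 50 μM IPTG and 0.2% rhamnose. Pooled colonies were amplicon-sequenced on an Illumina HiSeq 2500, and fitness is the DiMSum error-weighted combination of wild-type-normalised replicate fold changes, kanamycin versus none.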

Row | Sequence | self-splicing fitness (ln) (30 °C) | self-splicing fitness (ln) (37 °C)
1 | CCGCAGCAAUAUUACGUGGC | -3.29 ± 0.16 | -2.3 ± 0.2
2 | GCCGAGCAAUAUUACGUCGC | -4.48 ± 0.47 | -1.88 ± 0.25
3 | UUCAAGCAAUAUUACGCCCG | -1.16 ± 0.1 | -0.594 ± 0.15
4 | UUCAAGCAAUAUUACGCCCU | -1.34 ± 0.14 | -0.18 ± 0.16
5 | CCCAAGCAAUAUUACGAAUU | -3.33 ± 0.12 | -2.87 ± 0.15
6 | UAACAGCAAUAUUACGAGGU | -4.14 ± 0.23 | -2.58 ± 0.23
7 | AAGUAGCAAUAUUACGCCGA | -1.53 ± 0.16 | -1.39 ± 0.17
8 | GGUCAGCAAUAUUACGGUAU | -0.344 ± 0.11 | 0.218 ± 0.13
9 | CUACAGCAAUAUUACGUUCU | -2.56 ± 0.12 | -2.42 ± 0.2
10 | GGGCAGCAAUAUUACGGGAG | -3.27 ± 0.22 | -2.21 ± 0.2
11 | AUGCAGCAAUAUUACGUUUC | -3.96 ± 0.18 | -3.31 ± 0.32
12 | ACGCAGCAAUAUUACGUUAC | -3.14 ± 0.15 | -3.27 ± 0.23
13 | UCGAAGCAAUAUUACGCGCC | – | -1.49 ± 0.28
14 | CCCGAGCAAUAUUACGAAAG | -3.74 ± 0.27 | -1.7 ± 0.36
15 | AAUCAGCAAUAUUACGUGGA | -0.585 ± 0.072 | -0.433 ± 0.076
16 | UGAGAGCAAUAUUACGACGG | -2.66 ± 0.2 | -2.56 ± 0.25
17 | ACAGAGCAAUAUUACGAGGG | -2.31 ± 0.14 | -2.35 ± 0.24
18 | CAUAAGCAAUAUUACGAGCU | -4 ± 0.34 | -2.76 ± 0.3
19 | CACGAGCAAUAUUACGUGCU | -2.25 ± 0.12 | -2.99 ± 0.22
20 | CAUUAGCAAUAUUACGUUAG | -0.927 ± 0.092 | -0.609 ± 0.1
21 | AGCGAGCAAUAUUACGAUCA | -1.94 ± 0.26 | -2.08 ± 0.37
22 | UGUGAGCAAUAUUACGACUG | -1.04 ± 0.18 | -0.343 ± 0.29
23 | CGACAGCAAUAUUACGUGCU | -4.84 ± 0.36 | -3.46 ± 0.23
24 | UCUCAGCAAUAUUACGUUCA | -2.49 ± 0.14 | -1.15 ± 0.14

Row | Sequence | self-splicing fitness (ln) (30 °C) | self-splicing fitness (ln) (37 °C)
25 | GGCAAGCAAUAUUACGCAUA | -0.239 ± 0.12 | 0.0644 ± 0.13
26 | GCAUAGCAAUAUUACGCGCG | -1.06 ± 0.079 | -0.259 ± 0.092
27 | GCUCAGCAAUAUUACGAGGA | -0.479 ± 0.12 | -0.741 ± 0.12
28 | GUGAAGCAAUAUUACGGGUA | -0.994 ± 0.068 | -1.23 ± 0.1
29 | CUUCAGCAAUAUUACGAGUG | -0.689 ± 0.051 | -0.602 ± 0.071
30 | UGUAAGCAAUAUUACGGCGC | -1.87 ± 0.18 | -1.43 ± 0.25
31 | GGUUAGCAAUAUUACGUACA | -0.759 ± 0.11 | -0.469 ± 0.11
32 | AAGGAGCAAUAUUACGCACU | -1.53 ± 0.17 | -0.454 ± 0.18
33 | UACGAGCAAUAUUACGGGUU | -2.88 ± 0.14 | -3.21 ± 0.23
34 | CAAGAGCAAUAUUACGCAUC | -3.5 ± 0.29 | -0.397 ± 0.39
35 | CGCCAGCAAUAUUACGAUGG | -3.09 ± 0.15 | -2.72 ± 0.23
36 | ACGGAGCAAUAUUACGUUAC | – | -2.56 ± 0.22
37 | GUAGAGCAAUAUUACGGCUC | -1.57 ± 0.26 | -0.26 ± 0.45
38 | CUGCAGCAAUAUUACGGAAC | -3.88 ± 0.27 | -1.81 ± 0.27
39 | UCACAGCAAUAUUACGCAGU | -4.13 ± 0.21 | -2.17 ± 0.16
40 | AACCAGCAAUAUUACGUCGC | -2.34 ± 0.077 | -0.689 ± 0.085
41 | GGUGAGCAAUAUUACGCGCU | -1.7 ± 0.42 | –
42 | AUUUAGCAAUAUUACGGCCC | -1.06 ± 0.2 | -0.289 ± 0.3
43 | CGCGAGCAAUAUUACGUGAG | -4.51 ± 0.39 | -2.54 ± 0.32
44 | AUUCAGCAAUAUUACGCAGA | -2.28 ± 0.21 | -0.845 ± 0.12
45 | UCGUAGCAAUAUUACGGAUA | -1.59 ± 0.34 | -1.02 ± 0.28
46 | UCUCAGCAAUAUUACGACAG | -2.76 ± 0.17 | -2.33 ± 0.17
47 | UGGUAGCAAUAUUACGUCAG | -2.07 ± 0.19 | -0.266 ± 0.15
48 | CACGAGCAAUAUUACGGUCC | -4.36 ± 0.28 | -3.16 ± 0.33

Row | Sequence | self-splicing fitness (ln) (30 °C) | self-splicing fitness (ln) (37 °C)
49 | CCGCAGCAAUAUUACGUCCA | -2.28 ± 0.27 | 0.175 ± 0.2
50 | CACAAGCAAUAUUACGAAUG | -1.79 ± 0.074 | -1.2 ± 0.073
51 | AGGUAGCAAUAUUACGUGGU | -3.697 ± 0.024 | -2.33 ± 0.036
52 | AAUUAGCAAUAUUACGCCCG | -1.04 ± 0.18 | 0.376 ± 0.28
53 | GUCUAGCAAUAUUACGCCUC | -0.0816 ± 0.058 | -0.181 ± 0.068
54 | AAGUAGCAAUAUUACGCCAU | -2.41 ± 0.23 | -0.903 ± 0.26
55 | AUCCAGCAAUAUUACGACAC | -0.468 ± 0.11 | -0.488 ± 0.16
56 | ACCUAGCAAUAUUACGCAGU | -2.58 ± 0.17 | -1.53 ± 0.19
57 | GUGCAGCAAUAUUACGAGGG | -2.79 ± 0.21 | -1.87 ± 0.27
58 | GAUAAGCAAUAUUACGAUAU | -1.13 ± 0.095 | -0.335 ± 0.15
59 | UAUAAGCAAUAUUACGGGUC | -3.27 ± 0.34 | -1.78 ± 0.24
60 | UUUAAGCAAUAUUACGUUCG | -0.639 ± 0.093 | -0.169 ± 0.12
61 | CCAGAGCAAUAUUACGUAAU | -3.66 ± 0.23 | -3.18 ± 0.3
62 | GAGGAGCAAUAUUACGUCGA | -2.17 ± 0.16 | -1.61 ± 0.15
63 | GGCCAGCAAUAUUACGAUGG | -4.28 ± 0.33 | -2.67 ± 0.33
64 | GGUCAGCAAUAUUACGACGU | 0.0937 ± 0.091 | 0.477 ± 0.1
65 | AAGUAGCAAUAUUACGGAGA | -3.93 ± 0.37 | -2.34 ± 0.39
66 | GAUAAGCAAUAUUACGCCAU | -2.79 ± 0.21 | -1.72 ± 0.17
67 | GACUAGCAAUAUUACGUUUU | -2.43 ± 0.095 | -1.42 ± 0.11
68 | AAUUAGCAAUAUUACGUAUU | -2.32 ± 0.18 | -0.913 ± 0.14
69 | AACCAGCAAUAUUACGAAAG | -3.21 ± 0.16 | -1.99 ± 0.19
70 | AUGUAGCAAUAUUACGCCGG | -2.45 ± 0.17 | -0.942 ± 0.33
71 | GCAGAGCAAUAUUACGUCUA | -2.7 ± 0.23 | -2.57 ± 0.24
72 | CGGAAGCAAUAUUACGUCAG | -1.33 ± 0.13 | -0.154 ± 0.17

Row | Sequence | self-splicing fitness (ln) (30 °C) | self-splicing fitness (ln) (37 °C)
73 | CGCUAGCAAUAUUACGCCAG | -3.09 ± 0.15 | -2.81 ± 0.29
74 | GGAUAGCAAUAUUACGGUGA | -2.43 ± 0.1 | -1.14 ± 0.091
75 | UCUCAGCAAUAUUACGAAAG | -1.9 ± 0.26 | -1.36 ± 0.21
76 | AUCUAGCAAUAUUACGCGUC | -3.53 ± 0.39 | -1.07 ± 0.18
77 | UGCUAGCAAUAUUACGCGAU | -4.01 ± 0.39 | -1.03 ± 0.15
78 | AGUUAGCAAUAUUACGGCGU | -0.00974 ± 0.12 | 0.274 ± 0.12
79 | UAGGAGCAAUAUUACGUUCG | -0.918 ± 0.2 | -0.576 ± 0.19
80 | ACGUAGCAAUAUUACGUCUG | -2.47 ± 0.16 | -2.71 ± 0.19
81 | AAACAGCAAUAUUACGACUC | -0.613 ± 0.077 | -0.502 ± 0.098
82 | ACUCAGCAAUAUUACGGUGG | -4.04 ± 0.22 | -2.67 ± 0.18
83 | UGUUAGCAAUAUUACGUAUU | – | -2.12 ± 0.3
84 | AAUUAGCAAUAUUACGCCAA | -2.13 ± 0.18 | -1.25 ± 0.2
85 | AGACAGCAAUAUUACGCGGC | -3.51 ± 0.24 | -2.15 ± 0.21
86 | UAGCAGCAAUAUUACGCACC | -0.936 ± 0.16 | -0.423 ± 0.16
87 | CACGAGCAAUAUUACGGAUA | -2.98 ± 0.27 | -2.06 ± 0.24
88 | CGCAAGCAAUAUUACGAGCG | -3 ± 0.38 | -2.52 ± 0.44
89 | CUUCAGCAAUAUUACGCAAG | -4.31 ± 0.26 | -1.81 ± 0.2
90 | GACGAGCAAUAUUACGCAGC | -3.4 ± 0.27 | -1.69 ± 0.28
91 | AGCAAGCAAUAUUACGCGUG | -3.87 ± 0.19 | -3.49 ± 0.27
92 | CGCCAGCAAUAUUACGCGUA | -2.72 ± 0.18 | -2.31 ± 0.18
93 | ACGUAGCAAUAUUACGGAGG | -4.05 ± 0.28 | -2.53 ± 0.19
94 | GGAGAGCAAUAUUACGAUCG | -1.88 ± 0.14 | -0.426 ± 0.16
95 | AGAUAGCAAUAUUACGUCCA | 0.498 ± 0.11 | 0.122 ± 0.18
96 | GAGUAGCAAUAUUACGCUUG | -0.859 ± 0.088 | -0.313 ± 0.11
